Results from the supplement of paper PMC6755084.

What follows are sequences tested on F1*sub RNA substrate (template-directed ligation) (assay: fraction ligated after 30 min (ligated reads / total reads); higher = more ligase activity; sequences stand for … in GAGACCGCAACTGAAAAGTTGT…AGTTCTGCACGTAGAAGCAAAAGGC). Details: 42 °C.
Outline: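 Templates from an oligo pool were PCR-amplified, transcribed with T7 and gel-purified to give the ribozyme variants. Ligated and unligated products were separated on gel, reverse transcribed using barcoded primers, and read on a MiSeq. A quality filter of ≥20 was applied to core bases. Fraction ligated was taken as ligated reads as a share of all reads per variant.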

| Sequence | fraction ligated |
| --- | --- |
| TATCACTTGTCGTAAGACATTTGGAGGGTTG [3d2226] | 0.00325 |
| TATCACTTGTCGTAAGACATTTGGAGGGTTGA [2d272] | 0.015 |
| TATCACTTGTCGTAAGACATTTGGAGGTTGA [3d2224] | 0.00439 |
| TATCACTTGTCGTAAGACATTTGGATGGGTT [3d2229] | 0.73 |
| TATCACTTGTCGTAAGACATTTGGATGGGTTA [2d274] | 0.806 |
| TATCACTTGTCGTAAGACATTTGGATGGGTTG [2d275] | 0.828 |
| TATCACTTGTCGTAAGACATTTGGATGGTTA [3d2227] | 0.0433 |
| TATCACTTGTCGTAAGACATTTGGATGGTTG [3d2228] | 0.0492 |
| TATCACTTGTCGTAAGACATTTGGATGGTTGA [2d273] | 0.121 |
| TATCACTTGTCGTAAGACATTTGGGGGTTGA [3d2220] | 0.0157 |
| TATCACTTGTCGTAAGACATTTGGTGGGTTA [3d2222] | 0.00331 |
| TATCACTTGTCGTAAGACATTTGGTGGGTTG [3d2223] | 0.0154 |
| TATCACTTGTCGTAAGACATTTGGTGGGTTGA [2d271] | 0.0311 |
| TATCACTTGTCGTAAGACATTTGGTGGTTGA [3d2221] | 0.0037 |
| TATCACTTGTCGTAAGACATTTGTGGGTTGA [3d2215] | 0.00941 |
| TATCACTTGTCGTAAGACCTGGATGGGTTGA [3d2183] | 0.757 |
| TATCACTTGTCGTAAGACCTTGATGGGTTGA [3d2184] | 0.766 |
| TATCACTTGTCGTAAGACCTTGGAGGGTTGA [3d2186] | 0.0676 |
| TATCACTTGTCGTAAGACCTTGGATGGGTTA [3d2188] | 0.771 |
| TATCACTTGTCGTAAGACCTTGGATGGGTTG [3d2189] | 0.79 |
| TATCACTTGTCGTAAGACCTTGGATGGGTTGA [2d262] | 0.791 |

| Sequence | fraction ligated |
| --- | --- |
| TATCACTTGTCGTAAGACCTTGGATGGTTGA [3d2187] | 0.127 |
| TATCACTTGTCGTAAGACCTTGGTGGGTTGA [3d2185] | 0.0725 |
| TATCACTTGTCGTAAGACCTTTATGGGTTGA [3d2190] | 0.11 |
| TATCACTTGTCGTAAGACCTTTGAGGGTTGA [3d2192] | 0.0254 |
| TATCACTTGTCGTAAGACCTTTGATGGGTTA [3d2194] | 0.0671 |
| TATCACTTGTCGTAAGACCTTTGATGGGTTG [3d2195] | 0.513 |
| TATCACTTGTCGTAAGACCTTTGATGGGTTGA [2d263] | 0.76 |
| TATCACTTGTCGTAAGACCTTTGATGGTTGA [3d2193] | 0.0397 |
| TATCACTTGTCGTAAGACCTTTGGAGGGTTA [3d2201] | 0.0991 |
| TATCACTTGTCGTAAGACCTTTGGAGGGTTG [3d2202] | 0.0402 |
| TATCACTTGTCGTAAGACCTTTGGAGGGTTGA [2d265] | 0.072 |
| TATCACTTGTCGTAAGACCTTTGGAGGTTGA [3d2200] | 0.049 |
| TATCACTTGTCGTAAGACCTTTGGATGGGTT [3d2205] | 0.744 |
| TATCACTTGTCGTAAGACCTTTGGATGGGTTA [2d267] | 0.788 |
| TATCACTTGTCGTAAGACCTTTGGATGGGTTG [2d268] | 0.828 |
| TATCACTTGTCGTAAGACCTTTGGATGGTTA [3d2203] | 0.127 |
| TATCACTTGTCGTAAGACCTTTGGATGGTTG [3d2204] | 0.139 |
| TATCACTTGTCGTAAGACCTTTGGATGGTTGA [2d266] | 0.285 |
| TATCACTTGTCGTAAGACCTTTGGGGGTTGA [3d2196] | 0.0519 |
| TATCACTTGTCGTAAGACCTTTGGTGGGTTA [3d2198] | 0.0357 |
| TATCACTTGTCGTAAGACCTTTGGTGGGTTG [3d2199] | 0.0351 |

| Sequence | fraction ligated |
| --- | --- |
| TATCACTTGTCGTAAGACCTTTGGTGGGTTGA [2d264] | 0.114 |
| TATCACTTGTCGTAAGACCTTTGGTGGTTGA [3d2197] | 0.0467 |
| TATCACTTGTCGTAAGACCTTTGTGGGTTGA [3d2191] | 0.0153 |
| TATCACTTGTCGTAAGACTTGGATGGGTTGA [3d2107] | 0.771 |
| TATCACTTGTCGTAAGACTTTGATGGGTTGA [3d2108] | 0.76 |
| TATCACTTGTCGTAAGACTTTGGAGGGTTGA [3d2110] | 0.0282 |
| TATCACTTGTCGTAAGACTTTGGATGGGTTA [3d2112] | 0.792 |
| TATCACTTGTCGTAAGACTTTGGATGGGTTG [3d2113] | 0.796 |
| TATCACTTGTCGTAAGACTTTGGATGGGTTGA [2d244] | 0.821 |
| TATCACTTGTCGTAAGACTTTGGATGGTTGA [3d2111] | 0.133 |
| TATCACTTGTCGTAAGACTTTGGTGGGTTGA [3d2109] | 0.0656 |
| TATCACTTGTCGTAAGATTTGGATGGGTTGA [3d2106] | 0.815 |
| TATCACTTGTCGTAAGCACTGGATGGGTTGA [3d2128] | 0.771 |
| TATCACTTGTCGTAAGCACTTGATGGGTTGA [3d2129] | 0.743 |
| TATCACTTGTCGTAAGCACTTGGAGGGTTGA [3d2131] | 0.072 |
| TATCACTTGTCGTAAGCACTTGGATGGGTTA [3d2133] | 0.565 |
| TATCACTTGTCGTAAGCACTTGGATGGGTTG [3d2134] | 0.76 |
| TATCACTTGTCGTAAGCACTTGGATGGGTTGA [2d247] | 0.756 |
| TATCACTTGTCGTAAGCACTTGGATGGTTGA [3d2132] | 0.108 |
| TATCACTTGTCGTAAGCACTTGGTGGGTTGA [3d2130] | 0.0887 |
| TATCACTTGTCGTAAGCACTTTATGGGTTGA [3d2135] | 0.134 |

| Sequence | fraction ligated |
| --- | --- |
| TATCACTTGTCGTAAGCACTTTGAGGGTTGA [3d2137] | 0.086 |
| TATCACTTGTCGTAAGCACTTTGATGGGTTA [3d2139] | 0.124 |
| TATCACTTGTCGTAAGCACTTTGATGGGTTG [3d2140] | 0.677 |
| TATCACTTGTCGTAAGCACTTTGATGGGTTGA [2d248] | 0.751 |
| TATCACTTGTCGTAAGCACTTTGATGGTTGA [3d2138] | 0.157 |
| TATCACTTGTCGTAAGCACTTTGGAGGGTTA [3d2146] | 0.134 |
| TATCACTTGTCGTAAGCACTTTGGAGGGTTG [3d2147] | 0.116 |
| TATCACTTGTCGTAAGCACTTTGGAGGGTTGA [2d250] | 0.157 |
| TATCACTTGTCGTAAGCACTTTGGAGGTTGA [3d2145] | 0.143 |
| TATCACTTGTCGTAAGCACTTTGGATGGGTT [3d2150] | 0.534 |
| TATCACTTGTCGTAAGCACTTTGGATGGGTTA [2d252] | 0.737 |
| TATCACTTGTCGTAAGCACTTTGGATGGGTTG [2d253] | 0.771 |
| TATCACTTGTCGTAAGCACTTTGGATGGTTA [3d2148] | 0.153 |
| TATCACTTGTCGTAAGCACTTTGGATGGTTG [3d2149] | 0.17 |
| TATCACTTGTCGTAAGCACTTTGGATGGTTGA [2d251] | 0.216 |
| TATCACTTGTCGTAAGCACTTTGGGGGTTGA [3d2141] | 0.129 |
| TATCACTTGTCGTAAGCACTTTGGTGGGTTA [3d2143] | 0.0888 |
| TATCACTTGTCGTAAGCACTTTGGTGGGTTG [3d2144] | 0.0518 |
| TATCACTTGTCGTAAGCACTTTGGTGGGTTGA [2d249] | 0.14 |
